In this test the target is Spike (SARS-CoV-2, UniProt P0DTC2). The test can be described thus: SPR. Background: SPR reads the build-up and loss of mass on a sensor chip optically.

B1: Clec4g (protein)
chain: MNTGEYNKLGSAIEEVSRGQLGRWECYKQRLFFLVLALLVATVLWALILSTLLSSASSKLRVLLSHQDLLRTNASEQKMTLSSLKDDIGACRNCCSVTKAQLQTTLAEFKDIQAKLMEQESILKELQERVTQDLAKASRDRENIRSELFQALEAVKRQNSSCEQCPPSWLPFQGSCYYFSETQATWDTAQSYCGGQGAHLVIVRGLNEQGFLSQHTRGRGYWLGLRAVRHLNKIQGYRWVDGASLNFSHWNSGEPNDSRGHEDCIMMLHSGLWNDAPCTNERDGWICEKRSSCY
For orientation: Kd means a measure of binding affinity in units of concentration. The low end stands for tighter binding, the high end for weaker binding. Regarding B1, the Kd was determined as 1.6 µM. In other words, the single-digit micromolar range.

B2: CD209c (protein)
chain: MRMHTRLQFLKRVSNVAYSHGQEQAKKEKVYKEMTQLKSQINRLCRPCPWDWTVFQGNCYFFSKFQQNWNDSVNACRKLDAQLVVIKSDDEQSFLQQTSKEKGYAWMGLSDLKHEGRWHWVDGSHLLFSFMKYWNKGEPNNEWEEDCAEFRGDGWNDAPCTIKKYWICKKSAMSCTEK
The molecule B2 had a Kd of 1 µM.

These data come from paper PMC8420505 (2021).
